Common to all, as to assay: SPR
Assay [1] deals with T1, FcgRIa (human, UniProt P12314).
T1 chain: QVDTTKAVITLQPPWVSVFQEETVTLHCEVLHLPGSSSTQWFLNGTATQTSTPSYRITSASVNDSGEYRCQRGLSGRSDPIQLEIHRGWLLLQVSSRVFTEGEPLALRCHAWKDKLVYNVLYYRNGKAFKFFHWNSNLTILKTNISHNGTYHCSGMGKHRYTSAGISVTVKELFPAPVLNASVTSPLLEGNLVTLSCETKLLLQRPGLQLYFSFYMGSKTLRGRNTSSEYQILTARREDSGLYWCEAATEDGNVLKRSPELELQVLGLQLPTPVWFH

Assay [2] concerns the target T2, FcgRIIb (human, UniProt P31994).
T2 chain: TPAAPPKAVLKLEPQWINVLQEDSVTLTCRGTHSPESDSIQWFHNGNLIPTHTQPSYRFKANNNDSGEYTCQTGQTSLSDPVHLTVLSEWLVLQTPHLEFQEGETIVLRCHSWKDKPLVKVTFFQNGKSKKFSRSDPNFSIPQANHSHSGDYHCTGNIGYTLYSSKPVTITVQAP

Assay [3] concerns the target T3, FcgRIIa H (human, UniProt P12318).
T3 chain: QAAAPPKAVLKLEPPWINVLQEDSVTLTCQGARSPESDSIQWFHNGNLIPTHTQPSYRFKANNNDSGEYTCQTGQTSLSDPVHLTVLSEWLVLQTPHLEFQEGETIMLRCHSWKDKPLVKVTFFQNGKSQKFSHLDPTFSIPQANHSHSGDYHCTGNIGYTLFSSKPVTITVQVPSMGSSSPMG

The target of assay [4] is T4, FcgRIIa R (human, UniProt P12318).
T4 chain: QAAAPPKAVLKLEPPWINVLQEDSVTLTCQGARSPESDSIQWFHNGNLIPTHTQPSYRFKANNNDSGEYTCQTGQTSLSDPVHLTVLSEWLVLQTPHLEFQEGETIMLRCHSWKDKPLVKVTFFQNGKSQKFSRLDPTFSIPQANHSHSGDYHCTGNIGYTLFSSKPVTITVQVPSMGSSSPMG

In assay [5] the target is FcgRIIIa V (human, UniProt P08637).
FcgRIIIa V, sequence (P08637 17-208 F176V): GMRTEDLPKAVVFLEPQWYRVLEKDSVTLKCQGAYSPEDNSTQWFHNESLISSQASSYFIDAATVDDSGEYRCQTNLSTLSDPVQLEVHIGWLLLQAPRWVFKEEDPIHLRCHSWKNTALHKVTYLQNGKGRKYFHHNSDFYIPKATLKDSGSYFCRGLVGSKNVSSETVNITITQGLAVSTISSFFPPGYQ
Assay [6] addresses FcgRIIIa F (human, UniProt P08637).

FcgRIIIa F, sequence (P08637 17-208): as the sequence (P08637 17-208 F176V) above, with V160F counted along it

B1: H240-Kn223/H240-Hl068/L73-k0 (antibody)
chain 1: QDQLVQSGAEVKKPGASVKVSCKASGFNIKDTYIQWVRQAPGQGLEWMGRIDPLRKQTKYREKFEGRVTITADTSTNTAYMELSSLRSEDTAVYYCVRSGREFDYWGQGTLVTVSSASTKGPSVFPLAPSSKSTSGGTAALGCLVKDYFPEPVTVSWNSGALTSGVHTFPAVLQSSGLYSLSSVVTVPSSSLGTQTYICNVNHKPSNTKVDKKVEPKSCDKTHTCPPCPAPEGYWGPMVFLFPPKPKDTLMISRTPEVTCVVVDVSDEDPEVKFNWYVDGVEVHNAKTKPREEQYNATYRVVSVLTVLHQDWLNGKEYKCKVSNKDLPAPIEKTISKAKGQPREPQVCTLPPSRDELTKNQVSLWCLVKGFYPSDIAVEWESNGQPENNYKTTPPVLDSDGSFFLYSKLTVDKSRWQQGNVFSCSVMHEALHNHYTQKSLSLSP
chain 2: QDQLVQSGAEVKKPGASVKVSCKASGFNIKDTYIQWVRQAPGQGLEWMGRIDPLRKQTKYREKFEGRVTITADTSTNTAYMELSSLRSEDTAVYYCVRSGREFDYWGQGTLVTVSSASTKGPSVFPLAPSSKSTSGGTAALGCLVKDYFPEPVTVSWNSGALTSGVHTFPAVLQSSGLYSLSSVVTVPSSSLGTQTYICNVNHKPSNTKVDKKVEPKSCDKTHTCPPCPAPELLGGPSVFLFPPKPKDTLMISRTPEVTCVVVDVSHEEPEVKFNWYVDGVEVHNAKTKPREEQYNSTYRVVSVLTVLHQDWLNGKEYKCKVSNDALPKPIEETISKAKGQPREPQVYTLPPSRCELTKNQVSLSCAVKGFYPSDIAVEWESNGQPENNYKTTPPVLDSDGSFFLVSKLTVDKSRWQQGNVFSCSVMHEALHNHYTQKSLSLSP
chain 3: DIQMTQSPSSLSASVGDRVTITCRASQDIHKYIAWYQQKPGQAPRLLIQYTSTLQPGVPSRFSGSGSGTDYTFTISSLQPEDIATYYCLQYEQLRTFGGGTKVEIKRTVAAPSVFIFPPSDEQLKSGTASVVCLLNNFYPREAKVQWKVDNALQSGNSQESVTEQDSKDSTYSLSSTLTLSKADYEKHKVYACEVTHQGLSSPVTKSFNRGEC
Take B1: the Kd amounted to 0.13 nM in assay [1]; 280 nM in assay [2]; 94 nM in assay [3]; 62 nM in assay [4]; 0.57 nM in assay [5]; 4.2 nM in assay [6].

B2: H240-Kn201/H240-Hl076/L73-k0 (antibody)
chain 1: QDQLVQSGAEVKKPGASVKVSCKASGFNIKDTYIQWVRQAPGQGLEWMGRIDPLRKQTKYREKFEGRVTITADTSTNTAYMELSSLRSEDTAVYYCVRSGREFDYWGQGTLVTVSSASTKGPSVFPLAPSSKSTSGGTAALGCLVKDYFPEPVTVSWNSGALTSGVHTFPAVLQSSGLYSLSSVVTVPSSSLGTQTYICNVNHKPSNTKVDKKVEPKSCDKTHTCPPCPAPEFQWGPMVFLFPPKPKDTLMISRTPEVTCVVVDVSDEEPEVKFNWYVDGVEVHNAKTKPREEQYNATYRVVSVLTVLHQDWLNGKEYKCKVSNKALPAPIEKTISKAKGQPREPQVCTLPPSRDELTKNQVSLWCLVKGFYPSDIAVEWESNGQPENNYKTTPPVLDSDGSFFLYSKLTVDKSRWQQGNVFSCSVMHEALHNHYTQKSLSLSP
chain 2: QDQLVQSGAEVKKPGASVKVSCKASGFNIKDTYIQWVRQAPGQGLEWMGRIDPLRKQTKYREKFEGRVTITADTSTNTAYMELSSLRSEDTAVYYCVRSGREFDYWGQGTLVTVSSASTKGPSVFPLAPSSKSTSGGTAALGCLVKDYFPEPVTVSWNSGALTSGVHTFPAVLQSSGLYSLSSVVTVPSSSLGTQTYICNVNHKPSNTKVDKKVEPKSCDKTHTCPPCPAPELLGGPSVFLFPPKPKDTLMISRTPEVTCVVVDVSHEEPEVKFNWYVDGVEVHNAKTKPREEQYNSTYRVVSVLTVLHQDWLNGKEYKCKVSNDALPMPIEETISKAKGQPREPQVYTLPPSRCELTKNQVSLSCAVKGFYPSDIAVEWESNGQPENNYKTTPPVLDSDGSFFLVSKLTVDKSRWQQGNVFSCSVMHEALHNHYTQKSLSLSP
chain 3: DIQMTQSPSSLSASVGDRVTITCRASQDIHKYIAWYQQKPGQAPRLLIQYTSTLQPGVPSRFSGSGSGTDYTFTISSLQPEDIATYYCLQYEQLRTFGGGTKVEIKRTVAAPSVFIFPPSDEQLKSGTASVVCLLNNFYPREAKVQWKVDNALQSGNSQESVTEQDSKDSTYSLSSTLTLSKADYEKHKVYACEVTHQGLSSPVTKSFNRGEC
In the case of B2, the Kd is 0.058 nM in assay [1]; 5400 nM in assay [2]; 140 nM in assay [3]; 720 nM in assay [4]; 0.36 nM in assay [5]; 1.8 nM in assay [6].

B3: H240-Kn219/H240-Hl068/L73-k0 (antibody)
chain 1: QDQLVQSGAEVKKPGASVKVSCKASGFNIKDTYIQWVRQAPGQGLEWMGRIDPLRKQTKYREKFEGRVTITADTSTNTAYMELSSLRSEDTAVYYCVRSGREFDYWGQGTLVTVSSASTKGPSVFPLAPSSKSTSGGTAALGCLVKDYFPEPVTVSWNSGALTSGVHTFPAVLQSSGLYSLSSVVTVPSSSLGTQTYICNVNHKPSNTKVDKKVEPKSCDKTHTCPPCPAPEIYWGPMVFLFPPKPKDTLMISRTPEVTCVVVDVSDEDPEVKFNWYVDGVEVHNAKTKPREEQYNATYRVVSVLTVLHQDWLNGKEYKCKVSNKDLPAPIEKTISKAKGQPREPQVCTLPPSRDELTKNQVSLWCLVKGFYPSDIAVEWESNGQPENNYKTTPPVLDSDGSFFLYSKLTVDKSRWQQGNVFSCSVMHEALHNHYTQKSLSLSP
chain 2: QDQLVQSGAEVKKPGASVKVSCKASGFNIKDTYIQWVRQAPGQGLEWMGRIDPLRKQTKYREKFEGRVTITADTSTNTAYMELSSLRSEDTAVYYCVRSGREFDYWGQGTLVTVSSASTKGPSVFPLAPSSKSTSGGTAALGCLVKDYFPEPVTVSWNSGALTSGVHTFPAVLQSSGLYSLSSVVTVPSSSLGTQTYICNVNHKPSNTKVDKKVEPKSCDKTHTCPPCPAPELLGGPSVFLFPPKPKDTLMISRTPEVTCVVVDVSHEEPEVKFNWYVDGVEVHNAKTKPREEQYNSTYRVVSVLTVLHQDWLNGKEYKCKVSNDALPKPIEETISKAKGQPREPQVYTLPPSRCELTKNQVSLSCAVKGFYPSDIAVEWESNGQPENNYKTTPPVLDSDGSFFLVSKLTVDKSRWQQGNVFSCSVMHEALHNHYTQKSLSLSP
chain 3: DIQMTQSPSSLSASVGDRVTITCRASQDIHKYIAWYQQKPGQAPRLLIQYTSTLQPGVPSRFSGSGSGTDYTFTISSLQPEDIATYYCLQYEQLRTFGGGTKVEIKRTVAAPSVFIFPPSDEQLKSGTASVVCLLNNFYPREAKVQWKVDNALQSGNSQESVTEQDSKDSTYSLSSTLTLSKADYEKHKVYACEVTHQGLSSPVTKSFNRGEC
In the case of B3, the Kd in assay [1] was determined as 0.15 nM; in assay [2] it was 90 nM; in assay [3], 20 nM; in assay [4], 14 nM; in assay [5] it was 0.49 nM; in assay [6], 2.7 nM.

B4: H240-Kn217/H240-Hl068/L73-k0 (antibody)
chain 1: QDQLVQSGAEVKKPGASVKVSCKASGFNIKDTYIQWVRQAPGQGLEWMGRIDPLRKQTKYREKFEGRVTITADTSTNTAYMELSSLRSEDTAVYYCVRSGREFDYWGQGTLVTVSSASTKGPSVFPLAPSSKSTSGGTAALGCLVKDYFPEPVTVSWNSGALTSGVHTFPAVLQSSGLYSLSSVVTVPSSSLGTQTYICNVNHKPSNTKVDKKVEPKSCDKTHTCPPCPAPEDYWGPMVFLFPPKPKDTLMISRTPEVTCVVVDVSDEDPEVKFNWYVDGVEVHNAKTKPREEQYNATYRVVSVLTVLHQDWLNGKEYKCKVSNKDLPAPIEKTISKAKGQPREPQVCTLPPSRDELTKNQVSLWCLVKGFYPSDIAVEWESNGQPENNYKTTPPVLDSDGSFFLYSKLTVDKSRWQQGNVFSCSVMHEALHNHYTQKSLSLSP
chain 2: QDQLVQSGAEVKKPGASVKVSCKASGFNIKDTYIQWVRQAPGQGLEWMGRIDPLRKQTKYREKFEGRVTITADTSTNTAYMELSSLRSEDTAVYYCVRSGREFDYWGQGTLVTVSSASTKGPSVFPLAPSSKSTSGGTAALGCLVKDYFPEPVTVSWNSGALTSGVHTFPAVLQSSGLYSLSSVVTVPSSSLGTQTYICNVNHKPSNTKVDKKVEPKSCDKTHTCPPCPAPELLGGPSVFLFPPKPKDTLMISRTPEVTCVVVDVSHEEPEVKFNWYVDGVEVHNAKTKPREEQYNSTYRVVSVLTVLHQDWLNGKEYKCKVSNDALPKPIEETISKAKGQPREPQVYTLPPSRCELTKNQVSLSCAVKGFYPSDIAVEWESNGQPENNYKTTPPVLDSDGSFFLVSKLTVDKSRWQQGNVFSCSVMHEALHNHYTQKSLSLSP
chain 3: DIQMTQSPSSLSASVGDRVTITCRASQDIHKYIAWYQQKPGQAPRLLIQYTSTLQPGVPSRFSGSGSGTDYTFTISSLQPEDIATYYCLQYEQLRTFGGGTKVEIKRTVAAPSVFIFPPSDEQLKSGTASVVCLLNNFYPREAKVQWKVDNALQSGNSQESVTEQDSKDSTYSLSSTLTLSKADYEKHKVYACEVTHQGLSSPVTKSFNRGEC
Take B4: the Kd in assay [1] was found to be 0.17 nM; in assay [2], 120 nM; in assay [3] it was 76 nM; in assay [4] it was 28 nM; in assay [5], 0.38 nM; in assay [6], 2.4 nM.

Values taken from US10766960 (dated 2020).
